Results on four molecules are retold here after paper PMC3936753.

The target in data set [1] is T1, MBP-VP5 (Helicoverpa armigera cypovirus 5 …, UniProt Q3LTV8 1-380). In words: EMSA; 10 pmol protein, 0.1 pmol probe; 25 mM HEPES-KOH pH 7.5, 100 mM NaCl, 10 ul, 30 min at room temperature; 2% agarose gel. A general note: Mobility shift assays separate free from complexed probe on a gel.
Data set [2] deals with T1, MBP-VP5. In words: competition; vs HEX-RNA1, 5-100 fold excess, 2 pmol protein; 25 mM HEPES-KOH pH 7.5, 100 mM NaCl, 10 ul, 30 min at room temperature; 2% agarose gel.
The target in data set [3] is T1, MBP-VP5. In words: EMSA; 10 pmol protein, 0.1 pmol probe; Hill coefficient ~1.499 (0.05-0.16 uM) and ~4.972 (0.2-0.48 uM); 25 mM HEPES-KOH pH 7.5, 100 mM NaCl, 10 ul, 30 min at room temperature; 2% agarose gel.

B1: RNA1/RNA2 (dsRNA)
RNA 1: GUGUAGUAAUCGUCCAUUGUGUCU
RNA 2: AGACACAAUGGACGAUUACUACAC
For B1, the binding result with MBP-VP5 [1] is “binds”.

Take GUGUAGUAAUCGUCCAUUGUGUCU (ssRNA) [RNA10]: the binding result with MBP-VP5 [2] was “binds”.

In the case of GTGTAGTAATCGTCCATTGTGTCT (ssDNA) [DNA1], the binding result with MBP-VP5 [1] is given as “binds”.

With GUGUAGUAAUCGUCCAUUGUGUCU (ssRNA) [RNA1], the binding result in the data set with MBP-VP5 [3] is listed as “binds”.
